# Data: PMC2775144
# What was measured:
# [1] = target: PqsD (Pseudomonas aeruginosa); assay: AUC
# [2] = target: PqsD (Pseudomonas aeruginosa); assay: SEC-MALS
substance,measurement,setting,value
PqsD (enzyme),stoichiometry N,[1],2
same,stoichiometry N,[2],2
